The record followed here is US20180273604A1 (ALBERT EINSTEIN COLLEGE OF MEDICINE, published 2018).

The chains are these.
B1: ICOS-L, human, expressed on HEK 293 cells (ligand, UniProt O75144 19-302, looked up)
chain: DTQEKEVRAMVGSDVELSCACPEGSRFDLNDVYVYWQTSESKTVVTYHIPQNSSLENVDSRYRNRALMSPAGMLRGDFSLRLFNVTPQDEQKFHCLVLSQSLGFQEVLSVEVTLHVAANFSVPVVSAPHSPSQDELTFTCTSINGYPRPNVYWINKTDNSLLDQALQNDTVFLNMRGLYDVVSVLRIARTPSVNIGCCIENVLLQQNLTVGSQTGNDIGERDKITENPVSTGEKNAATWSILAVLCLLVVVAVAIGWVCRDRCLQHSYAGAWAVSPETELTGHV
notes: whole, on cells; Expressed as GFP or mCherry fusion; Library form: ectodomain on the mouse PD-L1 transmembrane segment with GFP; also called Human ICOS-L

In assay [1] the target is T1, TNFR-1B mutant D58A (human, UniProt P20333 23-461).
T1 construct: Point mutant expressed as mCherry fusion in HEK 293 cells; not shown: C-terminal mCherry fusion
T1 sequence: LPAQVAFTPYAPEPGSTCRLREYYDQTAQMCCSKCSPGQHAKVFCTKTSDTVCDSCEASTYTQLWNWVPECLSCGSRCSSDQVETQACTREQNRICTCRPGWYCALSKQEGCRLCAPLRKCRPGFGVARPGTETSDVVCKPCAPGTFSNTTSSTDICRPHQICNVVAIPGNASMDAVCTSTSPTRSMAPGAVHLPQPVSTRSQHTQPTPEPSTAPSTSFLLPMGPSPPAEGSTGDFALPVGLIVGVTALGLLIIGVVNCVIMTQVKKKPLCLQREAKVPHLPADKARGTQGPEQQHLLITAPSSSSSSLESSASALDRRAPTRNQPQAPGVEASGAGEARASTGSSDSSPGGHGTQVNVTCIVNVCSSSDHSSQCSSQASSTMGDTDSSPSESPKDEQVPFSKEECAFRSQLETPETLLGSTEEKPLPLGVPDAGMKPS
As to the kind of experiment: cell-cell FACS, mutant-mCherry cells vs ligand-GFP cells.

Assay [2] addresses T2, tumor necrosis factor receptor 1B (TNFR-1B), human, expressed on HEK 293 cells (human, UniProt P20333 23-461).
T2 construct: also called TNFR-1B-mCHERRY; Human TNFR-1B; not shown: C-terminal fluorescent protein (mCherry as query, GFP as library or panel member)
T2 sequence: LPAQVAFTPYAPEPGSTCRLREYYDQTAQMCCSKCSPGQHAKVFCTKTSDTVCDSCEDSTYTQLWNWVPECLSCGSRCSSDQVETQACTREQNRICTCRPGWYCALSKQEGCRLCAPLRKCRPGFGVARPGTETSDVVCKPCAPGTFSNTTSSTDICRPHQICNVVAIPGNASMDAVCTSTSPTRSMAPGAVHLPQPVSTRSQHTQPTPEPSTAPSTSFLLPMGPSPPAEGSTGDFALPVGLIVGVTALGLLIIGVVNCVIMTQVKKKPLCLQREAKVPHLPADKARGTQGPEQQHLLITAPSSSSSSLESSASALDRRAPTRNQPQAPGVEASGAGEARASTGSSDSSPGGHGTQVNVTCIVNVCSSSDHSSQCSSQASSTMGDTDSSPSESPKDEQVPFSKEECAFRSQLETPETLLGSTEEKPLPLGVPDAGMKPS
As to the kind of experiment: listed as newly discovered in this disclosure (cell-cell FACS screens).

Assay [3] addresses T3, TNFα, cell-surface displayed on HEK 293 cells (Homo sapiens (Human), UniProt P01375 1-233, Expressed as a GFP fusion on HEK 293 cells. GFP is left out of the chain. The native protein is a homotrimer.).
T3 construct: also called TNF-alpha; cell surface expressed TNFα
As to the kind of experiment: cell-cell FACS, mutant-mCherry cells vs ligand-GFP cells.

The target in assay [4] is B1. Described as above.
For assay [5], the target named is T4, NGFR, human, expressed on cells (human, UniProt P08138 29-427).
T4 construct: whole, on cells
T4 sequence (looked up): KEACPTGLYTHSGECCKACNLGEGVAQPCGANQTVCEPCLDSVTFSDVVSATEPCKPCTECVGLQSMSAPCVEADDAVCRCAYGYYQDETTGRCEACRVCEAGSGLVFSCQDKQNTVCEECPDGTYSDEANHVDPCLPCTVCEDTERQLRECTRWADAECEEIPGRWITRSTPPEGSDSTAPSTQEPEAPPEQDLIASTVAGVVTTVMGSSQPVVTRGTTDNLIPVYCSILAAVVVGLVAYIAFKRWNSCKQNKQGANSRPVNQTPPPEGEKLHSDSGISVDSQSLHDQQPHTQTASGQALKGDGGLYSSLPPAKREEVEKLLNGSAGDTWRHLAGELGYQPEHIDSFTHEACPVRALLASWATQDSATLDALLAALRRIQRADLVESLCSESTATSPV
As to the kind of experiment: cell-cell FACS screen, NGFR query cells vs GFP library cells.

Assay [6] has as its target T2, tumor necrosis factor receptor 1B …. Description: soluble ICOS-L Fc on transfected cells, flow cytometry.
Assay [7] addresses T5, mouse TNFR-1B (mouse, UniProt P25119 23-258).
T5 construct: also called mouse ortholog of TNFR-1B
T5 sequence (looked up): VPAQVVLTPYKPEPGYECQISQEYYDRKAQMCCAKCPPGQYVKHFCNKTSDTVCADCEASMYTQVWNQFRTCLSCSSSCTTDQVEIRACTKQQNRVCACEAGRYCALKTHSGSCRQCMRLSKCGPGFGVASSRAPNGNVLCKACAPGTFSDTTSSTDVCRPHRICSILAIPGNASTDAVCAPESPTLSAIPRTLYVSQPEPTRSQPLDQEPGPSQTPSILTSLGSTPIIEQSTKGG
As to the kind of experiment: mouse constructs tested; assay not described (data not shown).

T3 sequence (P01375 whole entry, form in doubt, the tested form may be a part): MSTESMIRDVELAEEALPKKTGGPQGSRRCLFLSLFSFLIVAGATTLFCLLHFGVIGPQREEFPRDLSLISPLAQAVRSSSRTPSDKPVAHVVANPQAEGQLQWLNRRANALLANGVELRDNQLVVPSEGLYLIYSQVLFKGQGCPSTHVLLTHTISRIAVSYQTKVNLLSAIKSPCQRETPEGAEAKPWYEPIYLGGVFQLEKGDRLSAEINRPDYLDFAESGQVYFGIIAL

For B1, the binding result in assay [1] and in assay [2] was “binds” in each case.

B2: MadCAM-1, human, expressed on HEK 293 cells (ligand, UniProt Q13477 19-382, looked up)
chain: QSLQVKPLQVEPPEPVVAVALGASRQLTCRLACADRGASVQWRGLDTSLGAVQSDTGRSVLTVRNASLSAAGTRVCVGSCGGRTFQHTVQLLVYAFPDQLTVSPAALVPGDPEVACTAHKVTPVDPNALSFSLLVGGQELEGAQALGPEVQEEEEEPQGDEDVLFRVTERWRLPPLGTPVPPALYCQATMRLPGLELSHRQAIPVLHSPTSPEPPDTTSPESPDTTSPESPDTTSQEPPDTTSPEPPDKTSPEPAPQQGSTHTPRSPGSTRTRRPEISQAGPTQGEVIPTGSSKPAGDQLPAALWTSSAVLGLLLLALPTYHLWKRCRHLAEDDTHPPASLRLLPQVSAWAGLRGTGQVGISPS
notes: whole, on cells; GFP or mCherry fusion; library form has the ectodomain on the mouse PD-L1 transmembrane segment
With B2, the binding result in assay [1] and in assay [2] was “binds” each time.

B3: TNFR-1B mutant T48A (receptor)
chain: LPAQVAFTPYAPEPGSTCRLREYYDQTAQMCCSKCSPGQHAKVFCTKASDTVCDSCEDSTYTQLWNWVPECLSCGSRCSSDQVETQACTREQNRICTCRPGWYCALSKQEGCRLCAPLRKCRPGFGVARPGTETSDVVCKPCAPGTFSNTTSSTDICRPHQICNVVAIPGNASMDAVCTSTSPTRSMAPGAVHLPQPVSTRSQHTQPTPEPSTAPSTSFLLPMGPSPPAEGSTGDFALPVGLIVGVTALGLLIIGVVNCVIMTQVKKKPLCLQREAKVPHLPADKARGTQGPEQQHLLITAPSSSSSSLESSASALDRRAPTRNQPQAPGVEASGAGEARASTGSSDSSPGGHGTQVNVTCIVNVCSSSDHSSQCSSQASSTMGDTDSSPSESPKDEQVPFSKEECAFRSQLETPETLLGSTEEKPLPLGVPDAGMKPS
notes: Point mutant expressed as mCherry fusion in HEK 293 cells; not shown: C-terminal mCherry fusion
For the molecule B3, the “binding as percent of wild-type” value in assay [3] and in assay [4] was ~50 % of wild-type in each case.

B4: TNFR-1B mutant N171D (receptor)
chain: LPAQVAFTPYAPEPGSTCRLREYYDQTAQMCCSKCSPGQHAKVFCTKTSDTVCDSCEDSTYTQLWNWVPECLSCGSRCSSDQVETQACTREQNRICTCRPGWYCALSKQEGCRLCAPLRKCRPGFGVARPGTETSDVVCKPCAPGTFSNTTSSTDICRPHQICNVVAIPGDASMDAVCTSTSPTRSMAPGAVHLPQPVSTRSQHTQPTPEPSTAPSTSFLLPMGPSPPAEGSTGDFALPVGLIVGVTALGLLIIGVVNCVIMTQVKKKPLCLQREAKVPHLPADKARGTQGPEQQHLLITAPSSSSSSLESSASALDRRAPTRNQPQAPGVEASGAGEARASTGSSDSSPGGHGTQVNVTCIVNVCSSSDHSSQCSSQASSTMGDTDSSPSESPKDEQVPFSKEECAFRSQLETPETLLGSTEEKPLPLGVPDAGMKPS
notes: as for B3
As to B4, the “binding as percent of wild-type” value in assay [3] and in assay [4] was ~50 % of wild-type throughout.

B5: B7-1, human, expressed on cells (ligand, UniProt P33681 35-288, looked up)
chain: VIHVTKEVKEVATLSCGHNVSVEELAQTRIYWQKEKKMVLTMMSGDMNIWPEYKNRTIFDITNNLSIVILALRPSDEGTYECVVLKYEKDAFKREHLAEVTLSVKADFPTPSISDFEIPTSNIRRIICSTSGGFPEPHLSWLENGEELNAINTTVSQDPETELYAVSSKLDFNMTTNHSFMCLIKYGHLRVNQTFNWNTTKQEHFPDNLLPSWAITLISVNGIFVICCLTYCFAPRCRERRRNERLRRESVRPV
notes: whole, on cells
Take B5: the binding result in assay [5] is on record as “binds”.

B6: ICOS-L Fc-fusion protein (soluble, purified) (Fc fusion, human, UniProt O75144 19-256, looked up, not shown: a dimerising Fc or GST)
chain: DTQEKEVRAMVGSDVELSCACPEGSRFDLNDVYVYWQTSESKTVVTYHIPQNSSLENVDSRYRNRALMSPAGMLRGDFSLRLFNVTPQDEQKFHCLVLSQSLGFQEVLSVEVTLHVAANFSVPVVSAPHSPSQDELTFTCTSINGYPRPNVYWINKTDNSLLDQALQNDTVFLNMRGLYDVVSVLRIARTPSVNIGCCIENVLLQQNLTVGSQTGNDIGERDKITENPVSTGEKNAAT
notes: Expressed in HEK 293 cells, purified by Ni2+-NTA and gel filtration; Used soluble or on protein A microbeads; also called ICOS-L Fc (IgG2a); ICOS-L mIgG2a
Regarding B6, the binding result in assay [6] is “binds”.

B7: mouse ICOS-L (ligand, UniProt Q9JHJ8 47-277, looked up)
chain: ETEVGAMVGSNVVLSCIDPHRRHFNLSGLYVYWQIENPEVSVTYYLPYKSPGINVDSSYKNRGHLSLDSMKQGNFSLYLKNVTPQDTQEFTCRVFMNTATELVKILEEVVRLRVAANFSTPVISTSDSSNPGQERTYTCMSKNGYPEPNLYWINTTDNSLIDTALQNNTVYLNKLGLYDVISTLRLPWTSRGDVLCCVENVALHQNITSISQAESFTGNNTKNPQETHNNE
notes: also called mouse ortholog of ICOS-L
As to B7, the binding result in assay [7] is on record as “no binding”.

B8: TNFR-1B mutant K42D (receptor)
chain: LPAQVAFTPYAPEPGSTCRLREYYDQTAQMCCSKCSPGQHADVFCTKTSDTVCDSCEDSTYTQLWNWVPECLSCGSRCSSDQVETQACTREQNRICTCRPGWYCALSKQEGCRLCAPLRKCRPGFGVARPGTETSDVVCKPCAPGTFSNTTSSTDICRPHQICNVVAIPGNASMDAVCTSTSPTRSMAPGAVHLPQPVSTRSQHTQPTPEPSTAPSTSFLLPMGPSPPAEGSTGDFALPVGLIVGVTALGLLIIGVVNCVIMTQVKKKPLCLQREAKVPHLPADKARGTQGPEQQHLLITAPSSSSSSLESSASALDRRAPTRNQPQAPGVEASGAGEARASTGSSDSSPGGHGTQVNVTCIVNVCSSSDHSSQCSSQASSTMGDTDSSPSESPKDEQVPFSKEECAFRSQLETPETLLGSTEEKPLPLGVPDAGMKPS
notes: as for B3
Take B8: the “binding as percent of wild-type” value in assay [3] and in assay [4] was ~50 % of wild-type each time.
